According to paper PMC11225919:

Molecular target: T1, Fur (6xHis-tagged) (Salmonella enterica serovar Infantis 119944) (UniProt A0A4Z0KGQ7)
T1 sequence: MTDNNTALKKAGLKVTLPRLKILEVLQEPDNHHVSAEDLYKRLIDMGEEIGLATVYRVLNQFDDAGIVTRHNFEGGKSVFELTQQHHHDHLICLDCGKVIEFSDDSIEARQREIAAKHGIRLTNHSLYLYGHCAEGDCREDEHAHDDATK
Experiment: EMSA

For “CCGGGGTCGCGCCCCCATAAACGCCTCCCTGACAGAGGCCCGGATACCCCATCCGGGCCTCTGTTCTTTCCGCCTGTTACCAACCCGAAACGGGCATAAATAAACCCGTTTCGGGTAGCATACAATTGTTAATAATTATTATTCTCATATGAGCAATGCTTTTCGGTAAGACGTGCCATCAGGAGGAAGA (double strand) [irp2 promoter (pESI)]”, the binding was “binds”.
